Experiment [1] has as its target full-length human IL-36R on cells (human) (UniProt Q9HB29).
For experiment [2] the target is unchanged. The source holds these as a separate data set.
Experiment [3] concerns the target Macaca fascicularis IL-36R on cells (Macaca fascicularis). Nature of the experiment: cell-based or functional assay.
Experiment [4] addresses full-length human IL-36R on cells (human) (UniProt Q9HB29). Nature of the experiment: cell-based or functional assay.
The target is the same in experiment [5]. The source holds these as a separate data set.
Experiment [6] shares this target. The source holds these as a separate data set.
In experiment [7] the target is T1, human IL-36R (IL1RL2) on primary human cells (human) (UniProt Q9HB29).
T1 sequence (looked up): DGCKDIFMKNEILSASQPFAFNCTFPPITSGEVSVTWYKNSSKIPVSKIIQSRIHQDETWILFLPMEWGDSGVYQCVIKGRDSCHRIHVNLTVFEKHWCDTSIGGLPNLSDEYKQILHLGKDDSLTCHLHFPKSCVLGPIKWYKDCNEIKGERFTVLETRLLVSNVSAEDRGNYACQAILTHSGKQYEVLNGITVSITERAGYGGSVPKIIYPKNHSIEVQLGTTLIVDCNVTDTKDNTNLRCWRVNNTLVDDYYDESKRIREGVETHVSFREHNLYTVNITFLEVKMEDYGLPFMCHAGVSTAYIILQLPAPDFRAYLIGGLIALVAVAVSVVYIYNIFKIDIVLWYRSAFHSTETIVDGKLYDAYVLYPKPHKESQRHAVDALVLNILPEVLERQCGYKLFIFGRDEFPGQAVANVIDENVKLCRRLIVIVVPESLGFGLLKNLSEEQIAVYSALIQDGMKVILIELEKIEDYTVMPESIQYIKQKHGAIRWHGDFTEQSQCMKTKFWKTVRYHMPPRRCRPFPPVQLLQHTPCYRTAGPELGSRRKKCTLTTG
The experiment is described as follows: cell-based or functional assay.

Like-named read-outs stand apart in the source and are kept apart here.

Macaca fascicularis IL-36R on cells (Macaca fascicularis), sequence (chain, as listed by the source): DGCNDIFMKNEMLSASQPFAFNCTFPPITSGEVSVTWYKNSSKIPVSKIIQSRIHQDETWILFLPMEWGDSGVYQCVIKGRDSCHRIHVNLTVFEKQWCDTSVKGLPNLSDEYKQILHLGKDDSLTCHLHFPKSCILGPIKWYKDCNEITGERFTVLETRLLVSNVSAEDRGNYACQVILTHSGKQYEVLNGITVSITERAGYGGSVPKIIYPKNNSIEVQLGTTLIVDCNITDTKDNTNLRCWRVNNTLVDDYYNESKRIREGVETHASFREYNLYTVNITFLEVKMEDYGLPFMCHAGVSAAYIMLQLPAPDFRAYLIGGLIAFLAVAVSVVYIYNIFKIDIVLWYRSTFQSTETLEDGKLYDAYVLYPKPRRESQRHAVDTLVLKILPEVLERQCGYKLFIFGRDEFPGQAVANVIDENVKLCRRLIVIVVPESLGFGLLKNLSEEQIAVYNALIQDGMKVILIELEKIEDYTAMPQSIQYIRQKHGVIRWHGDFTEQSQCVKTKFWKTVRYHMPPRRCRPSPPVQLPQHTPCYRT

As for “human IL-36α (from UniProt Q9UHA7 6-158) (ligand)”, in experiment [1], the EC50 (read off the curve) of hIL36α, NFκB-luciferase RLU, in the presence of 0.1 nM REGN6489 came to 0.04 nM; the EC50 (read off the curve) of hIL36α, NFκB-luciferase RLU, in the presence of 0.3 nM REGN6489 was determined as 0.2 nM; the EC50 (read off the curve) of hIL36α, NFκB-luciferase RLU, in the presence of 1 nM REGN6489 was found to be 0.6 nM; the EC50 (read off the curve) of hIL36α, NFκB-luciferase RLU, in the presence of 3 nM REGN6489 was 2 nM. In experiment [1], the EC50 (read off the curve) of hIL36α, NFκB-luciferase RLU, in the presence of 9 nM REGN6489 came to 5 nM and the EC50 (read off the curve) of hIL36α, NFκB-luciferase RLU, no antibody worked out at 0.02 nM. In experiment [2], the EC50 (read off the curve) of hIL36α, NFκB-luciferase RLU, in the presence of 0.3 nM REGN6490 stood at 0.05 nM; the EC50 (read off the curve) of hIL36α, NFκB-luciferase RLU, in the presence of 1 nM REGN6490 came out at 0.2 nM; the EC50 (read off the curve) of hIL36α, NFκB-luciferase RLU, in the presence of 3 nM REGN6490 was determined as 0.7 nM; the EC50 (read off the curve) of hIL36α, NFκB-luciferase RLU, in the presence of 9 nM REGN6490 amounted to 2 nM. In experiment [3], this substance gave an EC50, NFκB-luciferase, HEK293/NFκB-luc/MfIL-36R cells of 0.17 nM. This substance also had an EC50, NFκB-luciferase, HEK293/NFκB-luc/hIL-36R cells in experiment [4] of 0.012 nM.
As to “human IL-36γ (from UniProt Q9NZH8 18-169) (ligand)”, in experiment [5], the EC50 (read off the curve) of hIL36γ, NFκB-luciferase RLU, in the presence of 0.1 nM REGN6489 is 0.002 nM; the EC50 (read off the curve) of hIL36γ, NFκB-luciferase RLU, in the presence of 0.3 nM REGN6489 came out at 0.008 nM; the EC50 (read off the curve) of hIL36γ, NFκB-luciferase RLU, in the presence of 1 nM REGN6489 is 0.03 nM; the EC50 (read off the curve) of hIL36γ, NFκB-luciferase RLU, in the presence of 3 nM REGN6489 was determined as 0.1 nM. In experiment [5], the EC50 (read off the curve) of hIL36γ, NFκB-luciferase RLU, in the presence of 9 nM REGN6489 came out at 0.3 nM and the EC50 (read off the curve) of hIL36γ, NFκB-luciferase RLU, no antibody amounted to 0.001 nM. Further, in experiment [6], the EC50 (read off the curve) of hIL36γ, NFκB-luciferase RLU, in the presence of 0.3 nM REGN6490 is 0.004 nM; the EC50 (read off the curve) of hIL36γ, NFκB-luciferase RLU, in the presence of 1 nM REGN6490 was determined as 0.02 nM; the EC50 (read off the curve) of hIL36γ, NFκB-luciferase RLU, in the presence of 3 nM REGN6490 is 0.06 nM; the EC50 (read off the curve) of hIL36γ, NFκB-luciferase RLU, in the presence of 9 nM REGN6490 turned out to be 0.2 nM. Moreover, the EC50 (read off the curve) of hIL36γ, NFκB-luciferase RLU, no antibody in experiment [6] worked out at 0.003 nM. In addition, the EC50, NFκB-luciferase, HEK293/NFκB-luc/MfIL-36R cells in experiment [3] was determined as 0.062 nM. Besides, in experiment [4], the EC50, NFκB-luciferase, HEK293/NFκB-luc/hIL-36R cells came to 0.0084 nM.
In experiment [7], “rhIL-36α/IL-1F6 [aa6-158] (from UniProt Q9UHA7 6-158) (ligand)” yielded an EC50[M], IL-8 production, Intestinal MyoFibroblasts (InMyoFib), hIL-36α of 1.41e-09 M; an EC50[M], IL-8 production, Normal Epidermal Keratinocytes (NHEK), hIL-36α of 1.43e-09 M; an EC50[M], IL-8 production, PB-derived CD14+ Monocytes, hIL-36α of 2.75e-09 M.
In experiment [7], “rhIL-36γ/IL-1F9 [aa18-169] (from UniProt Q9NZH8 18-169) (ligand)” yielded an EC50[M], IL-8 production, Intestinal MyoFibroblasts (InMyoFib), hIL-36γ of 1.46e-09 M; an EC50[M], IL-8 production, Normal Epidermal Keratinocytes (NHEK), hIL-36γ of 4e-09 M; an EC50[M], IL-8 production, PB-derived CD14+ Monocytes, hIL-36γ of 2.75e-09 M.

For the origin of these results see patent US20200017592A1.
